Positions count from the first letter of the chain named. In names and notes the source's numbering stands.
Columns and labels:
[1] = molecular target: T1, TLR4 stably expressed on HEK293 cells (HEK/TLR4) (UniProt O00206 24-839, limits assumed); experiment: cell-based or functional assay
[2] = molecular target: T1, TLR4 stably expressed on HEK293 cells …; experiment: inferred from dose-dependent inhibition of HEK/TLR4 activation by the wt complex (IL-8)
[3] = molecular target: T1, TLR4 stably expressed on HEK293 cells …; experiment: competition: excess free MD-2 against ^3H-LOS:MD-2 on HEK/TLR4 cells, liquid scintillation
[4] = molecular target: T1, TLR4 stably expressed on HEK293 cells …; experiment: inferred from intermediate inhibition of HEK/TLR4 activation by LOS:MD-2 (IL-8)
[5] = molecular target: T1, TLR4 stably expressed on HEK293 cells …; experiment: cell association of radiolabelled complex with HEK/TLR4 cells, overnight 37 C, liquid scintillation (FIG. 3)

T1 sequence (O00206 24-839 limits assumed): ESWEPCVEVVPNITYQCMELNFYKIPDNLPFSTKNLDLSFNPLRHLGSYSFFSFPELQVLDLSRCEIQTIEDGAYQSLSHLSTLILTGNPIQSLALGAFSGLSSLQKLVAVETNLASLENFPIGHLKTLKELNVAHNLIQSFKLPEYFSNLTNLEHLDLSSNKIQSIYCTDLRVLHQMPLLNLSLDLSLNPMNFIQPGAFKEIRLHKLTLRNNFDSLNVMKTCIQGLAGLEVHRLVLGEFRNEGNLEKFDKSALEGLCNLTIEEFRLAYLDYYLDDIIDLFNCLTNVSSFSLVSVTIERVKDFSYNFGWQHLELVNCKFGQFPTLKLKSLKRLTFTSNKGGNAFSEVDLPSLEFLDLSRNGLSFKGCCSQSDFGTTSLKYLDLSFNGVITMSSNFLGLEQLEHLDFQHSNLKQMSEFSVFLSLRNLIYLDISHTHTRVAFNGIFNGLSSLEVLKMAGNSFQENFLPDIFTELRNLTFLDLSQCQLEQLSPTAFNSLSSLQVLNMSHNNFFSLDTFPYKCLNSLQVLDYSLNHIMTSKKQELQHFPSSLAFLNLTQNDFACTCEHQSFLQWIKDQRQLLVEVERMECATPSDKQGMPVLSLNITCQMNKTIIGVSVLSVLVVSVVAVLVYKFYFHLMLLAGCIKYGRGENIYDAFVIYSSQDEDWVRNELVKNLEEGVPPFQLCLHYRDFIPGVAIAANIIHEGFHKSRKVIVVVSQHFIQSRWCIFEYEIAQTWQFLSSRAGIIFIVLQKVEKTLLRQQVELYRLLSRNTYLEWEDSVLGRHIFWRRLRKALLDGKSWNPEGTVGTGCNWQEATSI

B1: E:MD-2 K125A.F126A (monomeric complex of wild-type endotoxin with MD-2 mutant K125A.F126A) (ligand)
chain: QKQYWVCNSSDASISYTYCDKMQYPISINVNPCIELKRSKGLLHIFYIPRRDLKQLYFNLYITVNTMNLPKRKEVICRGSDDDYSFCRALKGETVNTTISFSFKGIAASKGKYKCVVEAISGSPEEMLFCLEFVILHQPNSN
Question: For B1, which “activation (IL-8) of HEK/TLR4 cells relative to wt E:MD-2” value [1] is on record?
Answer: Its value is ~10%.

B2: E:MD-2 (F126A) (monomeric complex of wild-type LOS with MD-2 mutant F126A) (ligand)
chain: B1 chain with A107K
notes: also called LOS:MD-2 (F126A); F126A MD-2 mutant
Question: Does B2 bind [2]?
Answer: Result: binds

B3: soluble recombinant wild-type MD-2-His6 (not complexed to endotoxin), in dialyzed conditioned insect cell medium (other, human)
chain: QKQYWVCNSSDASISYTYCDKMQYPISINVNPCIELKRSKGLLHIFYIPRRDLKQLYFNLYITVNTMNLPKRKEVICRGSDDDYSFCRALKGETVNTTISFSFKGIKFSKGKYKCVVEAISGSPEEMLFCLEFVILHQPNSNHHHHHH
notes: Used as unpurified conditioned medium (about 10 ng MD-2 per microliter after concentration); also called wt MD-2; rMD-2
Question: Does B3 bind [3]?
Answer: Result: binds

B4: soluble recombinant C95Y mutant MD-2-His6, in dialyzed conditioned insect cell medium (other, human)
chain: B3 chain with C77Y
notes: also called C95Y MD-2
Question: Does B4 bind [4]?
Answer: Result: binds

B5: LOS:sCD14 complex (monomeric complex of N. meningitidis lipooligosaccharide with soluble CD14, Mr ~60,000) (other)
chain: TTPEPCELDDEDFRCVCNFSEPQPDWSEAFQCVSAVEVEIHAGGLNLEPFLKRVDADADPRQYADTVKALRVRRLTVGAAQVPAQLLVGALRVLAYSRLKELTLEDLKITGTMPPLPLEATGLALSSLRLRNVSWATGRSWLAELQQWLKPGLKVLSIAQAHSPAFSCEQVRAFPALTSLDLSDNPGLGERGLMAALCPHKFPAIQNLALRNTGMETPTGVCAALAAAGVQPHSLDLSHNSLRATVNPSAPRCMWSSALNSLNLSFAGLEQVPKGLPAKLRVLDLSCNRLNRAPQPDELPEVDNLTLDGNPFLVPGTALPHEGSMNSGVVPACARSTLSVGVSGTLVL
notes: also called ^3H-LOS:sCD14; endotoxin:sCD14
Question: Does B5 bind [5]?
Answer: Result: no binding (tested: 0.75 ng/ml ^3H-LOS)
